B1: SETD8 (parent)
chain: FVVEYHGDLIEITDAKKREALYAQ
B2: GLTSCR2 (parent)
chain: LARRRRRRQARREAEADKPRRLGR
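Note: lentivirally expressed fusions sorted by FACS into six bins by GFP to DsRed ratio, PSI derived from sequencing read proportions per bin multiplied by bin number.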

Variants of: B1
Assay: protein stability index of a GFP-peptide fusion (GPS, HEK-293T) (PSI 1-6); higher = more stable
Conditions: c terminus: a fixed tail appended
Variant A23Y has a protein stability index of 1.3. A23W gave a protein stability index of 2.12. With Q24N the protein stability index was 1.71. Variant Q24T has a protein stability index of 2.09. Q24G gave a protein stability index of 1.37. Q24H gave a protein stability index of 1.64. Q24K showed a protein stability index of 1.86. Variant Q24V has a protein stability index of 1.85. Variant Q24P has a protein stability index of 2.05. Q24A showed a protein stability index of 2.5. In the case of Q24M, the protein stability index is reported as 1.75. For Q24L, the protein stability index was 1.51. With Q24I the protein stability index was 1.75. Work on Q24D yielded a protein stability index of 1.77. For Q24S, the protein stability index was 1.6. In the case of Q24W, the protein stability index is reported as 1.63. In the case of Q24E, the protein stability index is reported as 1.86. In the case of Q24C, the protein stability index is reported as 1.35. Variant Q24Y has a protein stability index of 1.32. For Q24R, the protein stability index was 2.89. For Q24F, the protein stability index was 1.5.

Variants of: B2
Assay: as above
Conditions: c terminus: a fixed tail appended
A14M showed a protein stability index of 4.34. With A14I the protein stability index was 4.28. Variant A14N has a protein stability index of 4.44. Variant A14F has a protein stability index of 4.11. Variant A14R has a protein stability index of 4.52. A14S gave a protein stability index of 4.7. Variant A14W has a protein stability index of 4.45. In the case of A14K, the protein stability index is reported as 4.61. A14D gave a protein stability index of 4.49. For A14Q, the protein stability index was 4.8. With R21G the protein stability index was 4.39. In the case of R21A, the protein stability index is reported as 5.06. R21Y showed a protein stability index of 4.94. In the case of R21P, the protein stability index is reported as 3.66. For R21E, the protein stability index was 4.8. R21C gave a protein stability index of 4.84. Work on R21M yielded a protein stability index of 4.52. Work on R21K yielded a protein stability index of 4.44. Work on R21H yielded a protein stability index of 3.99. In the case of R21W, the protein stability index is reported as 3.64. R21V showed a protein stability index of 4.67. In the case of R21I, the protein stability index is reported as 3.94. Variant R21F has a protein stability index of 4.58. For A2M, the protein stability index was 4.19. In the case of A2C, the protein stability index is reported as 4.49. For A2E, the protein stability index was 4.71. A2V showed a protein stability index of 3.51. For A2S, the protein stability index was 4.83. Work on A2Q yielded a protein stability index of 5.01. In the case of A2P, the protein stability index is reported as 4.84. Variant A2D has a protein stability index of 4.41. A2R showed a protein stability index of 5.33. For A2W, the protein stability index was 3.61. P19I gave a protein stability index of 3.81. For P19D, the protein stability index was 4.91. Variant P19A has a protein stability index of 3.92. For P19T, the protein stability index was 4.39. With P19S the protein stability index was 4.16. Work on P19K yielded a protein stability index of 4.61. For P19G, the protein stability index was 4.57. With P19R the protein stability index was 4.54. In the case of P19Y, the protein stability index is reported as 4.26. In the case of P19Q, the protein stability index is reported as 4.19. With P19W the protein stability index was 3.92. Variant P19V has a protein stability index of 4.08. For P19E, the protein stability index was 4.64. P19M gave a protein stability index of 4.08. P19C showed a protein stability index of 4.29. With R3E the protein stability index was 5.08. For R3L, the protein stability index was 4.3. R3A showed a protein stability index of 5.01. R3T showed a protein stability index of 4.84. R3Y gave a protein stability index of 3.84. Variant R3M has a protein stability index of 4.41. For R3V, the protein stability index was 4.35. R3G gave a protein stability index of 5.02. In the case of R3Q, the protein stability index is reported as 4.99. Variant R3D has a protein stability index of 4.56. Variant R3F has a protein stability index of 4.34. In the case of R3C, the protein stability index is reported as 4.74. For R3H, the protein stability index was 4.3. R3K showed a protein stability index of 5.03. Work on R3P yielded a protein stability index of 5.54. With R24H the protein stability index was 4.8. For R24F, the protein stability index was 4.3. R24V gave a protein stability index of 4.42. With R24A the protein stability index was 4.72. R24C gave a protein stability index of 4.44. Work on R24G yielded a protein stability index of 4.79. In the case of R24L, the protein stability index is reported as 4.58. R24M showed a protein stability index of 4.28. With R24T the protein stability index was 4.6. R24D showed a protein stability index of 5.02. For R24N, the protein stability index was 4.28. R24P showed a protein stability index of 4.67. R24I gave a protein stability index of 4.47. Work on R11K yielded a protein stability index of 4.52. With R11E the protein stability index was 4.87. R11M showed a protein stability index of 4.47. Variant R11N has a protein stability index of 3.94. R11C gave a protein stability index of 4.64. With R11G the protein stability index was 3.7. Work on R11S yielded a protein stability index of 4.74. Variant R11L has a protein stability index of 5.4. For R11P, the protein stability index was 4.62. R11W showed a protein stability index of 4.53. R11F gave a protein stability index of 4.09. R11Q showed a protein stability index of 4.26. Work on R11I yielded a protein stability index of 4.8. In the case of R6F, the protein stability index is reported as 3.93. Work on R6C yielded a protein stability index of 4.5. In the case of R6A, the protein stability index is reported as 5.21. With R6H the protein stability index was 4.28. Work on R6W yielded a protein stability index of 4.74. With R6S the protein stability index was 4.86. For R6E, the protein stability index was 4.03. Work on R6Y yielded a protein stability index of 4.13. In the case of R6N, the protein stability index is reported as 5.07. With R6G the protein stability index was 4.55. For R6K, the protein stability index was 4.79. R6P showed a protein stability index of 4.57. E13T gave a protein stability index of 4.83. For E13I, the protein stability index was 4.73. Variant E13Y has a protein stability index of 4.4. In the case of E13A, the protein stability index is reported as 4.51. For E13G, the protein stability index was 5.01. With E13Q the protein stability index was 4.88. For E13R, the protein stability index was 4.4. E13D gave a protein stability index of 4.61. With E13V the protein stability index was 4.35. Work on E13S yielded a protein stability index of 4.26. For E13H, the protein stability index was 4.13. With E13P the protein stability index was 4.36. With E13F the protein stability index was 4.04. In the case of E13M, the protein stability index is reported as 3.72. E13L gave a protein stability index of 4.46. In the case of R12I, the protein stability index is reported as 4.72. R12H gave a protein stability index of 4.74. R12Y gave a protein stability index of 4.51. In the case of R12P, the protein stability index is reported as 4.6. R12V gave a protein stability index of 5.34. Work on R12C yielded a protein stability index of 4.31. With R12K the protein stability index was 4.55. In the case of R12D, the protein stability index is reported as 4.73. In the case of R12F, the protein stability index is reported as 4.17. Work on R12A yielded a protein stability index of 4.71. R12W gave a protein stability index of 4.34. R12T gave a protein stability index of 4.98. R12L gave a protein stability index of 3.76. In the case of R12N, the protein stability index is reported as 4.11. A10L showed a protein stability index of 4.38. In the case of A10E, the protein stability index is reported as 4.55. Variant A10F has a protein stability index of 4.47. In the case of A10C, the protein stability index is reported as 5.01. Variant A10I has a protein stability index of 4.55. With A10Q the protein stability index was 4.95. Variant A10N has a protein stability index of 4.6. Work on A10M yielded a protein stability index of 5.21. In the case of A10T, the protein stability index is reported as 4.21. A10P showed a protein stability index of 5.19. With A10G the protein stability index was 4.25. A10D gave a protein stability index of 3.92. Work on A10H yielded a protein stability index of 5.1. For G23E, the protein stability index was 4.68. With G23V the protein stability index was 4.45. For G23P, the protein stability index was 4.77.

Source: the supplement of paper PMC10567573
